According to patent US20240384250A1, “FIBROBLAST GROWTH FACTOR 23 MODULATING COMPOUNDS” (THE UAB RESEARCH FOUNDATION, priority 2021, published 2024):

T1: FGF23 (Homo sapiens, UniProt Q9GZV9)
T1 construct: purchased R&D Systems 2604FG025/CF (human) or 2629FG025/CF (mouse)
T1 sequence (Q9GZV9 25-251): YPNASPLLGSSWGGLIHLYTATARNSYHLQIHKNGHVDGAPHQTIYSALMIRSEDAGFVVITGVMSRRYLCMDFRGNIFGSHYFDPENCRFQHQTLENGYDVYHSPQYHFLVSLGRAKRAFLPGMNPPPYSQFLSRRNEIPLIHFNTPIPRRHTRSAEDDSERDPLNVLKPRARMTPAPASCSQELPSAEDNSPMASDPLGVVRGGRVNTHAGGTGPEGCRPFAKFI


Experiments:
[1] = system: mouse model of CKD; details: administration of sKL; cited from earlier work
[2] = target: T1, FGF23; assay: Plate-based binding assay, FGF23 coated, FLAG-sKL detected with anti-FLAG HRP; details: for binding of FLAG-sKL to coated FGF23 (absorbance at 450 nm): 10 ng FGF coated, 40 ng FLAG-sKL; for binding of FLAG-sKL to coated FGF23 compared with FGFR1c: 20 ng FGF23 coated, 80 ng FLAG-sKL
Description: Proteins were coated on 96-well plates (MaxiSorp; 439454, Thermo Fisher Scientific), and proteins were added to wells in 100 μl of enzyme-linked immunosorbent assay (ELISA) coating buffer (E107, Bethyl Laboratories) with a lid placed overtop and incubated at 4° C. overnight. Plates were washed 5× with 350 μl of assay buffer (50 mM Tris [pH 7.4], 200 mM NaCl, 0.01% Tween 20) on a 50 TS microplate washer (BioTek). Plates were blocked for 1 hour in 200 μl of assay buffer with 0.5% BSA. Plates were washed as before, and proteins were incubated on plates in 100 μl of assay buffer with 0.5% BSA. Proteins or heparin was incubated in orders described in the respective figure legends. Assays using FLAG-tag-based detection were incubated with anti-FLAG coupled to HRP at 1:20,000, and assays using Fc detection were incubated with anti-human Fc coupled to HRP at 1:10,000. Plates were washed as above, and 100 μl of 3,3′,5,5′-tetramethylbenzidine (TMB) substrate (E102, Bethyl Laboratories) was added for 15 to 20 minutes until positive wells developed a dark blue color. Reactions were stopped with ELISA stop solution (E115, Bethyl Laboratories) and analyzed using the Synergy HI plate reader (BioTek) at 450 nm wavelength. […] As a control to remove background absorbance values, wells were coated with an equal amount of BSA to match the amount of protein coated in experimental wells and treated the same as experimental wells. To study the effects of sKL on the binding between paracrine FGFs and FGFRs, plates were run as above except coated with paracrine FGFs. Fc-FGFR1 was preincubated with sKL or vehicle for 60 minutes, and then the combination was added to wells and the assay was run as before.

[3] = target: T2, FGF23 binding to FGFR2c (Homo sapiens, UniProt P21802); assay: Pull-down of FGF23 with Fc-FGFR on protein A/G beads with sKL, heparin or PBS; details: with heparin, or alone
T2 construct: Fc-coupled FGFR ectodomains were immobilized on protein A/G beads; purchased R&D Systems 2604FG025/CF or 2629FG025/CF; 712FR050
Description: To study the interaction between Fc-tagged FGFR isoforms (Fc-FGFR), FGF isoforms, and sKL, immunoprecipitation studies were conducted. Protein A beads (6501, BioVision) and protein G beads (6511, BioVision) were used at 25 μl of a 50% stock slurry per sample in a total bead volume of 50 μl. Beads were washed 5× in activity buffer (50 mM Tris [pH 7.4], 200 mM NaCl, 0.01% Tween 20). Bead spin-down assays were all performed for 2 minutes at 5000 g. Beads were resuspended in 1 ml of activity buffer in a 1.5-ml snap cap tube. One microgram of Fc-FGFR1 to 4 was incubated with the beads for 1 hour on a bead rotator. Control samples were incubated with 2 μg of anti-FGF antibody instead of Fc-FGFR. Beads were then pelleted at 5000 g for 2 minutes and washed 5× with activity buffer. Beads were resuspended and incubated with different combinations of 500 ng of FGF, 1 μg of sKL, 1.6 United States Pharmacopeia (USP) units of heparin, or phosphate-buffered saline (PBS). Beads were incubated for 1 hour on a tube rotator, and beads were pelleted and washed as before. One hundred microliters of 1× Laemmli sample buffer (1610737, Bio-Rad) with 1.42 M 2-mercaptoethanol was added, and samples were boiled for 5 minutes. Samples were analyzed using SDS-PAGE and Western blotting.
The sample (20 μl) was loaded onto Mini-PROTEAN TGX Precast Gel 4-20% for experiments with <9 samples (4568094, Bio-Rad) or Criterion TGX Precast Gel 4-20% (5678094, Bio-Rad) for experiments with >9 samples. Gels were run in 1× Tris/Glycine/SDS buffer (1610732, Bio-Rad) at 150 V and stopped when the sample dye reached the end of the gel. Gels were removed and electrotransferred via a semi-dry cassette (1703940, Bio-Rad) in I× Tris/Glycine buffer (1610734, Bio-Rad) with 20% methanol. Gels were transferred onto polyvinylidene diflouride membranes (IPVH00010, Millipore) at 20 V for 1 hour. Membranes were then blocked in 5% dried milk with 0.5% Tween 20 diluted in Tris-buffered saline (TBST; pH 7.5) for 1 hour and probed with antibodies against specific antigens at 1:1000 in TBST with 5% dried milk. Blots were washed 3× for 5 minutes in TBST and probed with HRP-coupled secondary antibodies against specific species at 1:10,000 in TBST with 5% dried milk. Membranes were imaged on the SRX-101A X-ray film developer (Konica Minolta).

T2 sequence (P21802 22-377 limits assumed): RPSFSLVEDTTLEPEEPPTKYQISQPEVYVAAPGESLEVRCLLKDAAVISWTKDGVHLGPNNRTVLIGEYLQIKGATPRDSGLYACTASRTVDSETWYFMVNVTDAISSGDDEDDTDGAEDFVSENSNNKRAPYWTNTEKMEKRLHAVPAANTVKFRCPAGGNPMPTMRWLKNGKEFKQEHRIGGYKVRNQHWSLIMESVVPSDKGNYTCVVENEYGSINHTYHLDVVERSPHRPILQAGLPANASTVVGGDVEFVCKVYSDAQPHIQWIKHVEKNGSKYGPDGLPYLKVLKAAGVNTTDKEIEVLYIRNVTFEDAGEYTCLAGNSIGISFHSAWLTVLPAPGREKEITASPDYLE

Molecule | development of ventricular arrhythmias [1] | binding of FLAG-sKL to coated FGF23 (absorbance at 450 nm) [2] | binding of FLAG-sKL to coated FGF23 (absorbance at 450 nm) ([2]; listed as FLAG-sKL) | binding of FLAG-sKL to coated FGF23 compared with FGFR1c [2] | binding of FLAG-sKL to coated FGF23 compared with FGFR1c ([2]; listed as FLAG-sKL) | FGF23 binding affinity, protein from HEK293 lysates instead of supernatants ([2]; 100 ng FGF23 coated, normalized to sKL amounts) | FGF23 co-precipitation with Fc-FGFR2c [3]
sKL: recombinant soluble α-klotho ectodomain, mouse aa 35-982 and human aa 34-981, FLAG- or Strep/His-tagged, purified from HEK293 cells (protein, left off: small tags and cut ends, recombinant soluble α-klotho ectodomain, mouse aa 35-982 and human aa 34-981, FLAG- or Strep/His-tagged, purified from HEK293 cells) EPGDGAQTWARFSRPPAPEAAGLFQGTFPDGFLWAVGSAAYQTEGGWQQHGKGASIWDTFTHHPLAPPGDSRNASLPLGAPSPLQPATGDVASDSYNNVFRDTEALRELGVTHYRFSISWARVLPNGSAGVPNREGLRYYRRLLERLRELGVQPVVTLYHWDLPQRLQDAYGGWANRALADHFRDYAELCFRHFGGQVKYWITIDNPYVVAWHGYATGRLAPGIRGSPRLGYLVAHNLLLAHAKVWHLYNTSFRPTQGGQVSIALSSHWINPRRMTDHSIKECQKSLDFVLGWFAKPVFIDGDYPESMKNNLSSILPDFTESEKKFIKGTADFFALCFGPTLSFQLLDPHMKFRQLESPNLRQLLSWIDLEFNHPQIFIVENGWFVSGTTKRDDAKYMYYLKKFIMETLKAIKLDGVDVIGYTAWSLMDGFEWHRGYSIRRGLFYVDFLSQDKMLLPKSSALFYQKLIEKNGFPPLPENQPLEGTFPCDFAWGVVDNYIQVDTTLSQFTDLNVYLWDVHHSKRLIKVDGVVTKKRKSYCVDFAAIQPQIALLQEMHVTHFRFSLDWALILPLGNQSQVNHTILQYYRCMASELVRVNITPVVALWQPMAPNQGLPRLLARQGAWENPYTALAFAEYARLCFQELGHHVKLWITMNEPYTRNMTYSAGHNLLKAHALAWHVYNEKFRHAQNGKISIALQADWIEPACPFSQKDKEVAERVLEFDIGWLAEPIFGSGDYPWVMRDWLNQRNNFLLPYFTEDEKKLIQGTFDFLALSHYTTILVDSEKEDPIKYNDYLEVQEMTDITWLNSPSQVAVVPWGLRKVLNWLKFKYGDLPMYIISNGIDDGLHAEDDQLRVYYMQNYINEALKAHILDGINLCGYFAYSFNDRTAPRFGLYRYAADQFEPKASMKHYRKIIDSNGFPGPETLERFCPEEFTVCTECSFFHTRKS | protects | bound FGF23 | only FGF23 bound FLAG-sKL | to a lesser extent | to a lower extent | higher | –
FGF23: recombinant fibroblast growth factor 23 protein from R&D Systems (protein) YPDTSPLLGSNWGSLTHLYTATARTSYHLQIHRDGHVDGTPHQTIYSALMITSEDAGSVVITGAMTRRFLCMDLHGNIFGSLHFSPENCKFRQWTLENGYDVYLSQKHHYLVSLGRAKRIFQPGTNPPPFSQFLARRNEVPLLHFYTVRPRRHTRSAEDPPERDPLNVLKPRPRATPVPVSCSRELPSAEEGGPAASDPLGVLRRGRGDARGGAGGADRCRPFPRFV | – | – | – | – | – | – | no FGF23 binding was detected
